This is an account of results in patent US20240132589A1.

Experiment [1] concerns the target Human LILRB2 on transiently transfected HEK293-6E cells (human) (UniProt Q8N423). Briefly: flow cytometry, transiently transfected HEK293-6E cells. On the technique in general: Flow cytometry measures light scatter and fluorescence of single cells or particles in a stream.
Experiment [2] addresses Human LILRB2 on stably transduced HEK293T cells (human) (UniProt Q8N423). Kind of experiment: flow cytometry competition on HEK293T-LILRB2 cells; blocking mAb 1 µg/mL; competitor: biotinylated B2Comp1.
For experiment [3] the target is unchanged. Kind of experiment: flow cytometry competition on HEK293T-LILRB2 cells; blocking mAb 10 µg/mL; competitor: biotinylated B2Comp1.
For experiment [4] the target is unchanged. Kind of experiment: flow cytometry competition on HEK293T-LILRB2 cells; blocking mAb 0.1 µg/mL; competitor: biotinylated B2Comp1.
Experiment [5] has the same target. Kind of experiment: flow cytometry competition on HEK293T-LILRB2 cells; blocking mAb 0.1 µg/mL; competitor: biotinylated B2Comp2.
For experiment [6] the target is unchanged. Kind of experiment: flow cytometry competition on HEK293T-LILRB2 cells; blocking mAb 1 µg/mL; competitor: biotinylated B2Comp2.
For experiment [7] the target is unchanged. Kind of experiment: flow cytometry competition on HEK293T-LILRB2 cells; blocking mAb 10 µg/mL; competitor: biotinylated B2Comp2.

Chain of Human LILRB2 on stably transduced HEK293T cells (human) (Q8N423 other isoform, or with tags, fused parts or gaps limits assumed): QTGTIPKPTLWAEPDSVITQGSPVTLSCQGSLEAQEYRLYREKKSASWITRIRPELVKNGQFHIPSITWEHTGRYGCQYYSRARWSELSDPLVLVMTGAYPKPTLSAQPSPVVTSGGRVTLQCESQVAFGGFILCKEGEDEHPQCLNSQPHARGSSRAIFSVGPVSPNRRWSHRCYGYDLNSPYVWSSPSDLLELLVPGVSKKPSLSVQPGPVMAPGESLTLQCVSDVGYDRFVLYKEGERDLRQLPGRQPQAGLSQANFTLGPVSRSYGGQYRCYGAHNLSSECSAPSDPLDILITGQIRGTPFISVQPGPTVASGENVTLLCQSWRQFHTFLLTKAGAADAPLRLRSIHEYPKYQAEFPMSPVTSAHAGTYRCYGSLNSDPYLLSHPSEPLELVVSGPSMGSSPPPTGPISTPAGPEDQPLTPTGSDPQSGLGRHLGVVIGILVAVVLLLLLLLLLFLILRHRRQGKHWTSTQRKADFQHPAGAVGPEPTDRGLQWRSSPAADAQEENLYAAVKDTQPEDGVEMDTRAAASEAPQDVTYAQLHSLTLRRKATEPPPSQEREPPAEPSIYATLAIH
Chain of Human LILRB2 on transiently transfected HEK293-6E cells (human) (Q8N423 22-597): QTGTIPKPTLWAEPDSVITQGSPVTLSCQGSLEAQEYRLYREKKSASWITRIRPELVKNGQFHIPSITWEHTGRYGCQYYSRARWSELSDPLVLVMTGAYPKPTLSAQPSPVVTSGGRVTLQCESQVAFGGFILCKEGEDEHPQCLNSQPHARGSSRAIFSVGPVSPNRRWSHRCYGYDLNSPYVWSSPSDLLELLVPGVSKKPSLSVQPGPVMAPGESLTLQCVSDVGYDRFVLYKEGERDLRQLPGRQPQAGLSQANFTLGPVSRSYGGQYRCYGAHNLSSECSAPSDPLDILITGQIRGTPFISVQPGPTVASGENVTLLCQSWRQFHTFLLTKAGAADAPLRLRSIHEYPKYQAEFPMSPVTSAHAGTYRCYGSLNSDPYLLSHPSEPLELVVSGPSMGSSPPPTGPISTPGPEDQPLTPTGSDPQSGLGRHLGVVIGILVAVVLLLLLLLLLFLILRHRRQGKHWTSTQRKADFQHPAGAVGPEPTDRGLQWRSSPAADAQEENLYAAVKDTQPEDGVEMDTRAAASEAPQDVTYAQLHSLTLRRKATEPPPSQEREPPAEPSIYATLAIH

B1: B2Comp2 (antibody, IgG4, V domains shown)
VH: QITLKESGPTLVKPTQTLTLTCTFSGFSLNTYAMGVSWIRQPPGKALEWLASIWWNGNKYNNPSLKSRLTVTKDTSKNQVVLTMTNMDPVDTATYYCAHSRIIRFTDYVMDAWGQGTLVTVSS
VL: DIQMTQSPSSLSTSVGDRVTITCRASEDIYNDLAWYQQKPGKAPKLLIYNANSLHTGVASRFSGSGSGTDFTFTISSLQPEDVATYFCQQYYDYPLTFGQGTKLEIKR
modifications: Biotin-conjugated when used as the labelled ('hot') benchmark antibody in the binning assay. The site is not stated and is not carried by the letters.
B1 registered a Bmax (MFI) in experiment [1] of 9630 MFI. Besides, the % Blocking of B2Comp1 Binding came to 78% in experiment [2], 80% in experiment [3] and 47% in experiment [4]. Further, the figures for the % Blocking of B2Comp2 Binding in experiment [5], in experiment [6] and in experiment [7] were 44%, 97% and 100%, respectively.
